Measurements from PMC9430884.

Tests used:
[1] = biological target: CckA_(L391F) (two-hybrid fusion) (Rhodobacter sphaeroides); conditions: scale: times higher concentration of Osp than for wild-type CckA
[2] = biological target: Gal4BD-CckAΔTM (Rhodobacter sphaeroides)

- inhibition of CckA L391F autophosphorylation with [γ-32P]ATP, purified proteins (2.5 μM His6-CckA L391F cytoplasmic domain, Osp-His6 0 to 10 μM, 30 min), against wild-type CckA [1]: 4
- inhibition of CckA autophosphorylation with [γ-32P]ATP, purified proteins (2.5 μM His6-CckA cytoplasmic domain, Osp-His6 0 to 10 μM, 30 min) [2]: 50%
Substance: Gal4AD-Osp (natural protein)
